{"source": "patent US20230348564A1", "about": "“ANTI-CANCER PROTEINS” (UNICHEM LABORATORIES LTD, priority 2020, published 2023)", "key": {"Astrocytoma (U87MG)": {"test_system": "Astrocytoma (U87MG)", "assay": "cytotoxicity in Brain Tumor Cell lines by MTT assay", "settings": "72 h"}, "[1]": {"test_system": "EA.hy926 (Human endothelial cells)", "assay": "Cell migration by scratch assay in endothelial cells", "type": "cell-based", "protocol": "EA.hy296 cells were counted using hemocytometer and plated in 6-well plates at the density of 0.5×10^6 cells/well. The cells were incubated overnight under growth conditions as described above so as to allow cell recovery and exponential growth. Following overnight incubation, a small linear scratch (representative wound) was created in the confluent monolayer (middle of the well) by gently scraping with sterile 200 μl micropipette tip. Photomicrographs of the scratch were taken at 0 h (Initial time point). Cells were rinsed with serum free DMEM and grouped for treatment in two different serum conditions:\n• Baseline control: Cells+DMEM • Positive/Validation control: Baseline control+Positive Control. Test: Baseline control+Test Item\n• Baseline control: Cells+DMEM+1% FBS • Positive/Validation control: Baseline control+Positive Control. • Test: Baseline control+Test item\nPhotomicrographs of the scratch were taken at 24 h-72 h time points. The photomicrographs obtained in the above step were analyzed for quantitative assessment of area of wound closure using ImageJ tool software. Percentage migration with respect to untreated cells at different time points was calculated."}, "KB": {"test_system": "KB", "assay": "cell based in vitro cytotoxicity/anti-proliferation assay (summary)", "parameters": "species or system Human", "settings": "Cervical", "protocol": "The percentage cytotoxicity was calculated using the statistical tool."}, "Neuroblastoma (SH-SY5Y)": {"test_system": "Neuroblastoma (SH-SY5Y)", "assay": "cytotoxicity in Brain Tumor Cell lines by MTT assay", "type": "cell-based, Human", "settings": "72 h", "protocol": "(§1) The SEQ ID NO. […] Untreated cells were used as control. […] Cells were incubated for 3 h at 37° C."}, "Glioblastoma (LN-18)": {"test_system": "Glioblastoma (LN-18)", "assay": "cytotoxicity in Brain Tumor Cell lines by MTT assay", "type": "cell-based, Human", "settings": "72 h", "protocol": "as §1"}, "[2]": {"test_system": "MDA-MB-453 (Human breast metastatic carcinoma)", "assay": "MTT cytotoxicity assay", "settings": "48h", "protocol": "(§2) All the cancer cell lines were procured from National Centre for Cell Science, Pune (India). Cell lines were maintained under conditions as mentioned in Table 23. The cell lines were sub-cultured by trypsinization followed by splitting the cell suspension into fresh flasks and supplementing with fresh culture medium.\n(§3) All the cell lines were grown in specified media at 37° C. with 95% Humidity and 5% CO2.\n(§4) The cells were trypsinized, counted by Trypan blue method in Neuebauer's Chamber and plated in wells of flat bottom 96-well plate at the density corresponding to 10×10^3 cells/well/200 μL medium.\n(§5) Following overnight incubation, the media in the plate was replenished with 180 μL/well and then the cells were treated with 20 μL of each test item at concentrations ranging from 2.5 μg/mL-80 μg/mL in triplicates, so that the total volume in each well is 200 μL.\n(§6) The untreated cells served as negative control. The cells were incubated with the test items or positive control for a time period of 48h. Following incubation, the cell cytotoxicity was estimated using MTT assay. Absorbance was measured at 540 nm. The percentage cytotoxicity corresponding to each treatment was calculated using the formula:\n(§7) % Cytotoxicity=(1−X/R)*100\n(§8) Where X=absorbance of wells corresponding to treated cells R=absorbance of untreated cells (cells maintained in growth medium only)\n(§9) IC50 value was calculated using Graph-Pad Prism version 4.01 software."}, "[3]": {"test_system": "PANC-1 (Human pancreatic epitheloid carcinoma)", "assay": "MTT cytotoxicity assay", "settings": "48h", "protocol": "as §2, §3, §4, §5, §6, §7, §8, §9"}, "[4]": {"test_system": "MIA PaCa-2 (Human pancreatic carcinoma)", "assay": "MTT cytotoxicity assay", "settings": "48h", "protocol": "as §2, §3, §4, §5, §6, §7, §8, §9"}, "[5]": {"test_system": "MDA-MB-231 (Human breast adenocarcinoma)", "assay": "MTT cytotoxicity assay", "settings": "48h", "protocol": "as §2, §3, §4, §5, §6, §7, §8, §9"}, "[6]": {"test_system": "T-47D (Human mammary gland ductal carcinoma)", "assay": "MTT cytotoxicity assay", "settings": "48h", "protocol": "as §2, §3, §4, §5, §6, §7, §8, §9"}, "[7]": {"test_system": "T24 (Human Bladder Cancer)", "assay": "MTT cytotoxicity assay", "settings": "48h", "protocol": "as §2, §3, §4, §5, §6, §7, §8, §9"}, "[8]": {"test_system": "PBMCs (Peripheral blood mononuclear cells)", "assay": "MTT cytotoxicity assay", "settings": "48h", "protocol": "as §2, §3, §4, §5, §6, §7, §8, §9"}, "[9]": {"test_system": "MCF-7 (Human breast adenocarcinoma)", "assay": "MTT cytotoxicity assay", "settings": "48h", "protocol": "as §2, §3, §4, §5, §6, §7, §8, §9"}}}
{"molecule": "SEQ ID NO. 2: recombinant lectin; variant of the S. rolfsii lectin amino acid sequence (reported as Rec-2 in WO 2010/095143) (protein, In vitro synthesis) TYKITVRVYQTNPDAFFHPVEKTVWKYANGGTWTITDDQHVLTMGGSGTSGTLRFHADNGESFTATFGVHNYKRWCDIVTNLAADETGMVINQQYYSQKNREEARERQLSNYQVKNAKGRNFQIVYTEAEGNDLHANLIIG", "values": [{"measurement": "IC50 Value", "setting": "Astrocytoma (U87MG)", "result": 98.88, "unit": "µg/mL"}, {"measurement": "% Cytotoxicity", "setting": "T-24", "result": 93.1, "unit": "%"}, {"measurement": "inhibition of endothelial cells migration as compared to control (DMEM)", "setting": "[1]; 20 μg/mL to 100 μg/mL, after 72 hrs", "result": "71.5% to 82.4%"}, {"measurement": "Inhibition of migration with respect to untreated", "setting": "[1]; 20 μg/mL, 24 h, 1% FBS", "result": 0.8, "unit": "%"}, {"measurement": "Inhibition of migration with respect to untreated", "setting": "[1]; 20 μg/mL, 24 h, SFM", "result": 74, "unit": "%"}, {"measurement": "Inhibition of migration with respect to untreated", "setting": "[1]; 20 μg/mL, 48 h, 1% FBS", "result": 5.4, "unit": "%"}, {"measurement": "Inhibition of migration with respect to untreated", "setting": "[1]; 20 μg/mL, 48 h, SFM", "result": 81.1, "unit": "%"}, {"measurement": "Inhibition of migration with respect to untreated", "setting": "[1]; 20 μg/mL, 72 h, SFM", "result": 82.4, "unit": "%"}, {"measurement": "Inhibition of migration with respect to untreated", "setting": "[1]; 40 μg/mL, 24 h, 1% FBS", "result": 28.5, "unit": "%"}, {"measurement": "Inhibition of migration with respect to untreated", "setting": "[1]; 40 μg/mL, 24 h, SFM", "result": 80.5, "unit": "%"}, {"measurement": "Inhibition of migration with respect to untreated", "setting": "[1]; 40 μg/mL, 48 h, 1% FBS", "result": 35.3, "unit": "%"}, {"measurement": "Inhibition of migration with respect to untreated", "setting": "[1]; 40 μg/mL, 48 h, SFM", "result": 82.3, "unit": "%"}, {"measurement": "Inhibition of migration with respect to untreated", "setting": "[1]; 40 μg/mL, 72 h, SFM", "result": 82.2, "unit": "%"}, {"measurement": "Inhibition of migration with respect to untreated", "setting": "[1]; 50 μg/mL, 24 h, 1% FBS", "result": 30.0, "unit": "%"}, {"measurement": "Inhibition of migration with respect to untreated", "setting": "[1]; 50 μg/mL, 24 h, SFM", "result": 79.9, "unit": "%"}, {"measurement": "Inhibition of migration with respect to untreated", "setting": "[1]; 50 μg/mL, 48 h, 1% FBS", "result": 42.9, "unit": "%"}, {"measurement": "Inhibition of migration with respect to untreated", "setting": "[1]; 50 μg/mL, 48 h, SFM", "result": 81, "unit": "%"}, {"measurement": "Inhibition of migration with respect to untreated", "setting": "[1]; 50 μg/mL, 72 h, SFM", "result": 79.5, "unit": "%"}, {"measurement": "Inhibition of migration with respect to untreated", "setting": "[1]; 60 μg/mL, 24 h, 1% FBS", "result": 50.1, "unit": "%"}, {"measurement": "Inhibition of migration with respect to untreated", "setting": "[1]; 60 μg/mL, 24 h, SFM", "result": 82.0, "unit": "%"}, {"measurement": "Inhibition of migration with respect to untreated", "setting": "[1]; 60 μg/mL, 48 h, 1% FBS", "result": 63.5, "unit": "%"}, {"measurement": "Inhibition of migration with respect to untreated", "setting": "[1]; 60 μg/mL, 48 h, SFM", "result": 77.3, "unit": "%"}, {"measurement": "Inhibition of migration with respect to untreated", "setting": "[1]; 60 μg/mL, 72 h, SFM", "result": 76.0, "unit": "%"}, {"measurement": "Inhibition of migration with respect to untreated", "setting": "[1]; 80 μg/mL, 24 h, 1% FBS", "result": 65.6, "unit": "%"}, {"measurement": "Inhibition of migration with respect to untreated", "setting": "[1]; 80 μg/mL, 24 h, SFM", "result": 80.5, "unit": "%"}, {"measurement": "Inhibition of migration with respect to untreated", "setting": "[1]; 80 μg/mL, 48 h, 1% FBS", "result": 77.8, "unit": "%"}, {"measurement": "Inhibition of migration with respect to untreated", "setting": "[1]; 80 μg/mL, 48 h, SFM", "result": 78.2, "unit": "%"}, {"measurement": "Inhibition of migration with respect to untreated", "setting": "[1]; 80 μg/mL, 72 h, SFM", "result": 74.5, "unit": "%"}, {"measurement": "Inhibition of migration with respect to untreated", "setting": "[1]; 100 μg/mL, 24 h, 1% FBS", "result": 73.8, "unit": "%"}, {"measurement": "Inhibition of migration with respect to untreated", "setting": "[1]; 100 μg/mL, 24 h, SFM", "result": 55.7, "unit": "%"}, {"measurement": "Inhibition of migration with respect to untreated", "setting": "[1]; 100 μg/mL, 48 h, 1% FBS", "result": 73.1, "unit": "%"}, {"measurement": "Inhibition of migration with respect to untreated", "setting": "[1]; 100 μg/mL, 48 h, SFM", "result": 73.2, "unit": "%"}, {"measurement": "Inhibition of migration with respect to untreated", "setting": "[1]; 100 μg/mL, 72 h, SFM", "result": 71.5, "unit": "%"}, {"measurement": "% Cytotoxicity", "setting": "PANC-1", "result": 60.8, "unit": "%"}, {"measurement": "% Cytotoxicity", "setting": "MDA-MB-453", "result": 46.6, "unit": "%"}, {"measurement": "% Cytotoxicity", "setting": "KB", "result": 64.0, "unit": "%"}, {"measurement": "% of cytotoxicity", "setting": "Neuroblastoma (SH-SY5Y); 2.5 μg/mL-100 μg/mL", "result": "10.3%-46.9%"}, {"measurement": "IC50 Value", "setting": "Neuroblastoma (SH-SY5Y)", "result": ">100", "unit": "µg/mL"}, {"measurement": "% of cytotoxicity", "setting": "Glioblastoma (LN-18); 2.5 μg/mL-100 μg/mL", "result": "39.6%-75.3%"}, {"measurement": "IC50 Value", "setting": "Glioblastoma (LN-18)", "result": 4.35, "unit": "µg/mL"}, {"measurement": "IC50", "setting": "[2]", "result": ">80", "unit": "µg/mL"}, {"measurement": "IC50", "setting": "[3]", "result": 24.3, "unit": "µg/mL"}, {"measurement": "IC50", "setting": "[4]", "result": ">80", "unit": "µg/mL"}, {"measurement": "IC50", "setting": "[5]", "result": 9.7, "unit": "µg/mL"}, {"measurement": "IC50", "setting": "[6]", "result": ">80", "unit": "µg/mL"}, {"measurement": "IC50", "setting": "[7]", "result": 10.4, "unit": "µg/mL"}, {"measurement": "IC50", "setting": "[8]", "result": ">80", "unit": "µg/mL"}, {"measurement": "IC50", "setting": "[9]", "result": ">80", "unit": "µg/mL"}]}
